Laboratory results reported in FireProtDB (doi:10.1021/bi00118a013).

B1: Guanyl-specific ribonuclease T1, P00651 (parent)
chain: MMYSKLLTLTTLLLPTALALPSLVERACDYTCGSNCYSSSDVSTAQAAGYQLHEDGETVGSNSYPHKYNNYEGFDFSVSSPYYEWPILSSGDVYSGGSPGADRVVFNENNQLAGVITHTGASGNNFVECT

Variants of: B1
Conditions: Aspergillus oryzae (strain ATCC 42149 / RIB 40), pH 7, Fluorescence, MOPS 30 mM, reversible: yes, structure 1RN1, whole UniProt chain shown

Row | Variant | ddG of mutation (higher = less stable) (25 °C, Urea) [kcal/mol] | denaturant m value (25 °C, Urea) [kcal/mol/M] | denaturant midpoint (higher = more stable) (25 °C, Urea) [M] | ddG of mutation (higher = less stable) (50.9 °C, Thermal) [kcal/mol] | Tm (Thermal) [°C] | change of melting temperature, mutant - wild type (higher = more stable) (Thermal) [°C] | unfolding enthalpy (van 't Hoff) (Thermal) [kcal/mol]
1 | Y94F | 1.36 | 1.32 | 4.17 | 1.35 | 46.9 | -4 | 89
2 | S90A | 1.44 | 1.38 | 4.11 | 1.56 |  |  | 
3 | N62A | -0.03 | 1.31 | 5.31 | 0 | 50.9 | 0 | 111
4 | S38A | 1.23 | 1.28 | 4.29 | 1.08 | 47.7 | -3.2 | 99
5 | Y83F | 0.5 | 1.29 | 4.88 | 0.44 |  |  | 
6 | S43A |  |  |  | -0.57 | 52.6 | 1.7 | 109
7 | Y82F | 0.78 | 1.26 | 4.65 | 0.71 | 48.8 | -2.1 | 99
8 | N35A | 0.9 | 1.28 | 4.56 | 0.71 | 48.8 | -2.1 | 101
9 | N107A | 2.87 | 1.44 | 2.92 | 2.91 | 42.3 | -8.6 | 91
10 | Y68F | -1.14 | 1.17 | 6.24 | -1.15 | 54.3 | 3.4 | 106
11 | Y37F | 2.11 | 1.27 | 3.56 | 2.03 | 44.9 | -6 | 101
12 | N70A | 2.08 | 1.3 | 3.59 |  |  |  | 
